The record followed here is PMC10527052, “X-ray Crystallographic Study of Preferred Spacing by the NF-κB p50 Homodimer on κB DNA” (Biomolecules, 2023).

Data set [1] concerns the target T1, NF-kB p50 RHR homodimer (mouse (murine), UniProt P25799 39-363). Briefly: X-ray crystallography; 11-bp spacing, 2.80 A; Co-crystal structures only; crystallization conditions not in the material; protein stock in 25 mM Tris-HCl pH 7.4, 50 mM NaCl, 1 mM DTT. The settings on record: protein: recombinant; chain copies: 2; blunt.
In data set [2] the target is T1, NF-kB p50 RHR homodimer. Briefly: X-ray crystallography; 11-bp spacing, 3.0 A; Co-crystal structures only; crystallization conditions not in the material; protein stock in 25 mM Tris-HCl pH 7.4, 50 mM NaCl, 1 mM DTT. The settings on record: protein: recombinant; chain copies: 2.
Data set [3] deals with the molecule itself. Briefly: crystal structure; p50 RHR homodimer co-crystallised with κB DNA (IL-6 17-mer, 2.80 Å; NGAL 10-mer, 2.80 Å; Test 16-mer, 3.0 Å); hanging or sitting drop vapor diffusion; one complex per asymmetric unit.
For data set [4], the target named is T1, NF-kB p50 RHR homodimer. Briefly: X-ray crystallography; 12-bp spacing, 2.80 A; 2:1 DNA:p50 dimer; second duplex almost unbound, contributes terminal G; Co-crystal structures only; crystallization conditions not in the material; protein stock in 25 mM Tris-HCl pH 7.4, 50 mM NaCl, 1 mM DTT. The settings on record: protein: recombinant; chain copies: 2; blunt; 2 duplexes per p50 dimer, stacked end-to-end.

What is called stoichiometry N is a count of units in the complex or per binding partner.

B1: IL-6 kB DNA 17-mer (dsDNA)
DNA 1: TGTGGGATTTTCCCATG
DNA 2: CATGGGAAAATCCCACA
B1: in the data set with NF-kB p50 RHR homodimer [1], the binding result is given as “binds”.

B2: Test kB-like DNA 16-mer (dsDNA)
DNA 1: TCAGGGGAATTCCCCTC
DNA 2: AGAGGGGAATTCCCCTG
Regarding B2, the binding result with NF-kB p50 RHR homodimer [2] is listed as “binds”.

B3: murine NF-κB p50 subunit Rel homology region (amino acid residues 39–363) (domain or fragment, UniProt P25799 39-363, looked up)
chain: GPYLQILEQPKQRGFRFRYVCEGPSHGGLPGASSEKNKKSYPQVKICNYVGPAKVIVQLVTNGKNIHLHAHSLVGKHCEDGVCTVTAGPKDMVVGFANLGILHVTKKKVFETLEARMTEACIRGYNPGLLVHSDLAYLQAEGGGDRQLTDREKEIIRQAAVQQTKEMDLSVVRLMFTAFLPDSTGSFTRRLEPVVSDAIYDSKAPNASNLKIVRMDRTAGCVTGGEEIYLLCDKVQKDDIQIRFYEEEENGGVWEGFGDFSPTDVHRQFAIVFKTPKYKDVNITKPASVFVQLRRKSDLETSEPKPFLYYPEIKDKEEVQRKRQK
notes: 351-363 disordered in the crystals; murine amino acid numbering; also called p50 RHR; NF-κB p50 homodimer; source: E. coli BL21 (DE3), pET11a, purified (SP Sepharose, Superdex 75 size exclusion)
Turning to B3, the “stoichiometry N” value in data set [3] stood at 2.

B4: NGAL kB DNA 10-mer (dsDNA)
DNA 1: GGGAATGTCC
DNA 2: GGACATTCCC
For B4, the binding result in the data set with NF-kB p50 RHR homodimer [4] is on record as “binds”.
